# Reference: patent US20210380703A1
# Biological target: human Fc (human)
# Experiment: ELISA, negative control
row,optical density [OD],Binder
1,0.395,"369_G09 (antibody, V domains shown) VH: EVQLLESGGGLVQPGGSLRLSCAASGFTFDSYSMNWVRQAPGKGLEWVSNINYNGGYTGYADSVKGRFTISRDNSKNTLYLQMNSLRAEDTAVYYCARSATWHDTHLDYWGQGTLVTVSS VL: DIQMTQSPSSLSASVGDRVTITCRASQSIVTYLNWYQQKPGKAPKLLIYAATSRASGVPSRFSGSGSGTDFTLTISSLQPEDFATYYCQQSYDLPLTFGGGTKVEIK"
2,0.176,"374_E03 (antibody, V domains shown) VH: EVQLLESGGGLVQPGGSLRLSCAASGFTFSSYSMNWVRQAPGKGLEWVSNINYNSGYKGYADSVKGRFTISRDNSKNTLYLQMNSLRAEDTAVYYCARSATWHDTHLDYWGQGTLVTVSS VL: DIQMTQSPSSLSASVGDRVTITCRASQSILTYVNWYQQKPGKAPKLVIYAATSLASGVPSRFSGSGSGTDFTLTISSLQPEDFATYYCQQSYDTPLTFGGGTKVEIK"
3,0.341,"367_G03 (antibody, V domains shown) VH: EVQLLESGGGLVQPGGSLRLSCAASGFTFDSYSMHWVRQAPGKGLEWVANINYNGGYTSYADSVKGRFTISRDNSKNTLYLQMNSLRAEDTAVYYCARAATWHDTHLDYWGQGTLVTVSS VL: DIQMTQSPSSLSASVGDRVTITCRASQSIVSYVNWYQQKPGKAPKLVIYAATSRHSGVPSRFSGSGSGTDFTLTISSLQPEDFATYYCQQSYDLPLTFGGGTKVEIK"
4,0.319,"365_D06 (antibody, V domains shown) VH: EVQLLESGGGLVQPGGSLRLSCAASGFTFDSYSMNWVRQAPGKGLEWVSNINYNGGYTSYADSVKGRFTISRDNSKNTLYLQMNSLRAEDTAVYYCARSATWHDTHLDYWGQGTLVTVSS VL: DIQMTQSPSSLSASVGDRVTITCRASQSILTYVNWYQQKPGKAPKLLIYAATSRASGVPSRFSGSGSGTDFTLTISSLQPEDFATYYCQQSYSLPLTFGGGTKVEIK"
5,0.199,"375_G12 (antibody, V domains shown) VH: EVQLLESGGGLVQPGGSLRLSCAASGFTFDSYGMHWVRQAPGKGLEWVSSINYNGGYTSYADSVKGRFTISRDNSKNTLYLQMNSLRAEDTAVYYCARSATWHDTHLDYWGQGTLVTVSS VL: DIQMTQSPSSLSASVGDRVTITCRASQSIVSYVNWYQQKPGKAPKLLIYAATSRHSGVPSRFSGSGSGTDFTLTISSLQPEDFATYYCQQSYDTPLTFGGGTKVEIK"
6,0.214,"374_G12 (antibody, V domains shown) VH: EVQLLESGGGLVQPGGSLRLSCAASGFTFDDYGMNWVRQAPGKGLEWVSSINYNGGYKSYADSVKGRFTISRDNSKNTLYLQMNSLRAEDTAVYYCARSATWHDTHLDYWGQGTLVTVSS VL: DIQMTQSPSSLSASVGDRVTITCRASQSILTYVNWYQQKPGKAPKLVIYAATSLASGVPSRFSGSGSGTDFTLTISSLQPEDFATYYCQQSYNSPLTFGGGTKVEIK"
7,0.16,"374_A08 (antibody, V domains shown) VH: EVQLLESGGGLVQPGGSLRLSCAASGFTFDSYSMNWVRQAPGKGLEWVSNINYNSGYTSYADSVKGRFTISRDNSKNTLYLQMNSLRAEDTAVYYCARSATWHDTHLDYWGQGTLVTVSS VL: DIQMTQSPSSLSASVGDRVTITCRASQSIVTYLNWYQQKPGKAPKLLIYAATSLASGVPSRFSGSGSGTDFTLTISSLQPEDFATYYCQQSYDLPLTFGGGTKVEIK"
8,0.253,"367_F10 (antibody, V domains shown) VH: EVQLLESGGGLVQPGGSLRLSCAASGFTFDSYGMNWVRQAPGKGLEWVSGINYNSGYTSYADSVKGRFTISRDNSKNTLYLQMNSLRAEDTAVYYCARAATWHDTHLDYWGQGTLVTVSS VL: DIQMTQSPSSLSASVGDRVTITCRASQSILTYLNWYQQKPGKAPKLLIYAATSRASGVPSRFSGSGSGTDFTLTISSLQPEDFATYYCQQSYDTPLTFGGGTKVEIK"
9,0.46,"365_E04 (antibody, V domains shown) VH: EVQLLESGGGLVQPGGSLRLSCAASGFTFDSYGMHWVRQAPGKGLEWVASINYNGGYKSYADSVKGRFTISRDNSKNTLYLQMNSLRAEDTAVYYCARAANWHDTALDYWGQGTLVTVSS VL: DIQMTQSPSSLSASVGDRVTITCRASQSILSYVNWYQQKPGKAPKLLIYAATSLASGVPSRFSGSGSGTDFTLTISSLQPEDFATYYCQQSYELPLTFGGGTKVEIK"
10,0.175,"375_G10 (antibody, V domains shown) VH: EVQLLESGGGLVQPGGSLRLSCAASGFTFSSYGMNWVRQAPGKGLEWVSSINYNGGYKSYADSVKGRFTISRDNSKNTLYLQMNSLRAEDTAVYYCARSATWHDTHLDYWGQGTLVTVSS VL: DIQMTQSPSSLSASVGDRVTITCRASQSIVTYLNWYQQKPGKAPKLVIYAATSRHSGVPSRFSGSGSGTDFTLTISSLQPEDFATYYCQQSYDTPLTFGGGTKVEIK"
11,0.162,"374_D11 (antibody, V domains shown) VH: EVQLLESGGGLVQPGGSLRLSCAASGFTFDSYGMNWVRQAPGKGLEWVSNINYNSGYTGYADSVKGRFTISRDNSKNTLYLQMNSLRAEDTAVYYCARSATWHDTHLDYWGQGTLVTVSS VL: DIQMTQSPSSLSASVGDRVTITCRASQSILTYLNWYQQKPGKAPKLLIYAATSRASGVPSRFSGSGSGTDFTLTISSLQPEDFATYYCQQSYETPLTFGGGTKVEIK"
12,0.374,"365_A02 (antibody, V domains shown) VH: EVQLLESGGGLVQPGGSLRLSCAASGFTFDSYSMNWVRQAPGKGLEWVSNINYNGGYTSYADSVKGRFTISRDNSKNTLYLQMNSLRAEDTAVYYCARSATWHDTHLDYWGQGTLVTVSS VL: DIQMTQSPSSLSASVGDRVTITCRASQSILTYVNWYQQKPGKAPKLLIYAATSRASGVPSRFSGSGSGTDFTLTISSLQPEDFATYYCQQSYNSPLTFGGGTKVEIK"
13,0.325,"365_G02 (antibody, V domains shown) VH: EVQLLESGGGLVQPGGSLRLSCAASGFTFSDYSMNWVRQAPGKGLEWVSNINYNSGYKGYADSVKGRFTISRDNSKNTLYLQMNSLRAEDTAVYYCARSATWHDTHLDYWGQGTLVTVSS VL: DIQMTQSPSSLSASVGDRVTITCRASQSIVTYLNWYQQKPGKAPKLVIYAVTSLHSGVPSRFSGSGSGTDFTLTISSLQPEDFATYYCQQSYELPLTFGGGTKVEIK"
14,0.301,"366_C07 (antibody, V domains shown) VH: EVQLLESGGGLVQPGGSLRLSCAASGFTFSSYSMNWVRQAPGKGLEWVSNINYNGGYTSYADSVKGRFTISRDNSKNTLYLQMNSLRAEDTAVYYCARSATWHDTHLDYWGQGTLVTVSS VL: DIQMTQSPSSLSASVGDRVTITCRASQSILTYVNWYQQKPGKAPKLLIYAATSRASGVPSRFSGSGSGTDFTLTISSLQPEDFATYYCQQSYNSPLTFGGGTKVEIK"
15,0.178,"374_A03 (antibody, V domains shown) VH: EVQLLESGGGLVQPGGSLRLSCAASGFTFDSYSMNWVRQAPGKGLEWVSNINYNGGYTSYADSVKGRFTISRDNSKNTLYLQMNSLRAEDTAVYYCARSATWHDTHLDYWGQGTLVTVSS VL: DIQMTQSPSSLSASVGDRVTITCRASQSILTYLNWYQQKPGKAPKLLIYAATSRASGVPSRFSGSGSGTDFTLTISSLQPEDFATYYCQQSYDNPLTFGGGTKVEIK"
16,0.161,"374_G01 (antibody, V domains shown) VH: EVQLLESGGGLVQPGGSLRLSCAASGFTFDSYSMNWVRQAPGKGLEWVSNINYNSGYTSYADSVKGRFTISRDNSKNTLYLQMNSLRAEDTAVYYCARSATWHDTHLDYWGQGTLVTVSS VL: DIQMTQSPSSLSASVGDRVTITCRASQSILTYVNWYQQKPGKAPKLLIYATTSRHSGVPSRFSGSGSGTDFTLTISSLQPEDFATYYCQQSYNLPLTFGGGTKVEIK"
17,0.18,"373_D02 (antibody, V domains shown) VH: EVQLLESGGGLVQPGGSLRLSCAASGFTFSSYSMNWVRQAPGKGLEWVSNINYNSGYKGYADSVKGRFTISRDNSKNTLYLQMNSLRAEDTAVYYCARSATWHDTHLDYWGQGTLVTVSS VL: DIQMTQSPSSLSASVGDRVTITCRASQSILSYLNWYQQKPGKAPKLLIYAATSLASGVPSRFSGSGSGTDFTLTISSLQPEDFATYYCQQSYDLPLTFGGGTKVEIK"
18,0.321,"367_D02 (antibody, V domains shown) VH: EVQLLESGGGLVQPGGSLRLSCAASGFTFDDYSMNWVRQAPGKGLEWVSNINYNGGYTSYADSVKGRFTISRDNSKNTLYLQMNSLRAEDTAVYYCARSATWHDTHLDYWGQGTLVTVSS VL: DIQMTQSPSSLSASVGDRVTITCRASQSIVTYVNWYQQKPGKAPKLLIYAATSRASGVPSRFSGSGSGTDFTLTISSLQPEDFATYYCQQSYENPLTFGGGTKVEIK"
19,0.225,"374_C07 (antibody, V domains shown) VH: EVQLLESGGGLVQPGGSLRLSCAASGFTFDSYSMNWVRQAPGKGLEWVSNINYNGGYTSYADSVKGRFTISRDNSKNTLYLQMNSLRAEDTAVYYCARSATWHDTHLDYWGQGTLVTVSS VL: DIQMTQSPSSLSASVGDRVTITCRASQSIISYLNWYQQKPGKAPKLLIYAATSRASGVPSRFSGSGSGTDFTLTISSLQPEDFATYYCQQSDELPLTFGGGTKVEIK"
20,0.278,"369_E09 (antibody, V domains shown) VH: EVQLLESGGGLVQPGGSLRLSCAASGFTFDSYSMNWVRQAPGKGLEWVSNINYNSGYKGYADSVKGRFTISRDNSKNTLYLQMNSLRAEDTAVYYCARSATWHDTHLDYWGQGTLVTVSS VL: DIQMTQSPSSLSASVGDRVTITCRASQSILSYLNWYQQKPGKAPKLVIYAATSRASGVPSRFSGSGSGTDFTLTISSLQPEDFATYYCQQSYDLPLTFGGGTKVEIK"
21,0.177,"373_A07 (antibody, V domains shown) VH: EVQLLESGGGLVQPGGSLRLSCAASGFTFSSYSMNWVRQAPGKGLEWVSNINYNGGYTGYADSVKGRFTISRDNSKNTLYLQMNSLRAEDTAVYYCARSATWHDTHLDYWGQGTLVTVSS VL: DIQMTQSPSSLSASVGDRVTITCRASQSILTYVNWYQQKPGKAPKLLIYAATSRASGVPSRFSGSGSGTDFTLTISSLQPEDFATYYCQQSDNLPLTFGGGTKVEIK"
22,0.309,"370_D07 (antibody, V domains shown) VH: EVQLLESGGGLVQPGGSLRLSCAASGFTFSSYGMNWVRQAPGKGLEWVSNINYNSGYTGYADSVKGRFTISRDNSKNTLYLQMNSLRAEDTAVYYCARSATWHDTHLDYWGQGTLVTVSS VL: DIQMTQSPSSLSASVGDRVTITCRASQSILSYVNWYQQKPGKAPKLVIYAATSLASGVPSRFSGSGSGTDFTLTISSLQPEDFATYYCQQSYESPLTFGGGTKVEIK"
